Assay results: patent US20250361305A1 (ORIONIS BIOSCIENCES, published 2025)

How the values were obtained:
[1] = target: T1, PD-L1 antigen (ELISA of Example 2) (human, UniProt Q9NZQ7 19-239, limits assumed); assay: ELISA, signal on PD-L1 antigen over control
[2] = target: T1, PD-L1 antigen (ELISA of Example 2); assay: ELISA, signal on PD-L1 antigen

T1 sequence (Q9NZQ7 19-239 limits assumed): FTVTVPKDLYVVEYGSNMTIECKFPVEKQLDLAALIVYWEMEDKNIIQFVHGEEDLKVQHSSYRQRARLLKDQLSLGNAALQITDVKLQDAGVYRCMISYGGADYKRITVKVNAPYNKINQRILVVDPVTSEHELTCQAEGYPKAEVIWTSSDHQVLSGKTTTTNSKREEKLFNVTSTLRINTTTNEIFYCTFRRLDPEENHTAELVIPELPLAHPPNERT

A/control [1]	ELISA [2]	Binder
4.39	0.429	3LIG8 (VHH, PD-L1 VHH) VHH: QVQLQESGGGLVQPGGSLRLSCTASGTIFSINRMDWFRQAPGKQRELVALITSDGTPTYADSAKGRFTISRDNTKKTVSLQMNSLKPEDTAVYYCHVSSGVYNYWGQGTQVTVSS
5.13	1.03	2LIG97 (VHH, PD-L1 VHH) VHH: QVQLQESGGGLVQAGESLRLSCTASGTIFSINRMDWFRQAPGKQRELVALITSDGTPTYADSAKGRFTISRDNTKKTVSLQMNSLKPEDTAVYYCHVSSGVYNYWGQGTQVTVSS
9.16	2.11	2LIG99 (VHH, PD-L1 VHH) VHH: QVQLQESGGGLVQAGGSLRLSCTASGTIFSINRMDWFRQAPGKQRELVALITSDGTPAYADSAKGRFTISRDNTKKTVSLQMNSLKPEDTAVYYCHVSSGVYNYWGQGTQVTVSS
32.6	3.55	2LIG109 (VHH, PD-L1 VHH) VHH: QVQLQESGGGLVQSGGSLRLSCKTSGFTFSSYGMSWVRQTPGKGPEWVSAIDSGGGSTSYADSVKGRFTISRDNAKNTLYLQMNSLKPEDTAVYYCAQGYYCSGYGCSDYWGQGTQVTVSS
40.9	3.96	3LIG29 (VHH, PD-L1 VHH) VHH: QVQLQESGGGLVQAGGSMRLSCAASGFTFSSYGMSWVRQTPGKGPEWVSAIDSGGGSTSYADSVKGRFTISRDNAKNTLYLQMNSLKPEDTAVYYCAQGYYCSGYGCSDYWGQGTQVTVSS
8.18	0.844	2LIG35 (VHH, PD-L1 VHH) VHH: QVQLQESGGGLVQPGGSLRLSCAASGFTFSSYGMSWVRQTPGKGPEWVSAIDSGGGSTSYADSVKGRFTTSRDNAKNTLYLQMNSLKPEDTAVYYCAQGYYCSGYGCSDYWGQGTQVTVSS
19.1	1.76	3LIG33 (VHH, PD-L1 VHH) VHH: QVQLQESGGGLVQPGTSLRLSCAASGFTLDYYAIGWFRQAPGKEREEVSCISSSDGSTYYADSVKGRFTISRDNAKNTVNLQMNSLKPEDTAVYYCATDGWSSCRHGINEYLYWGQGTQVTVSS
47.3	4	3LIG30 (VHH, PD-L1 VHH) VHH: QVQLQESGGGTVQAGGSLRLSCAASGFTFNDYAMSWVRQAPGKGLEWVSGIRSNGGYTNYADSVKGRFTISRDNAKNTLYLQMNSLKSEDTAVYYCAQGYYCSGYGCYPGQGTQVTVSS
4.22	0.415	2LIG176 (VHH, PD-L1 VHH) VHH: QVQLQESGGGLVQAGGSLRLSCAASESIFSIEAMGWYRQAPGKQRELVAAIFGGGFTNYADSVKGRFTISRDNANRTVYLQMNSLKPEDTAVYYCNADLVSGSSRLYDYWGQGTQVTVSS
33.6	3.8	2LIG86 (VHH, PD-L1 VHH) VHH: QVQLQESGGGLVQPGGSLRLSCAASGFTFDYYAIGWFRQAPGKEREEVSCISGSDSSTYYADSVKGRFTIVRDNAQNTVYLQMNSLKPEDTAIYYCAVTGWRTCRGLNEYDYWGQGTQVTVSS
33.2	3.03	3LIG28 (VHH, PD-L1 VHH) VHH: QVQLQESGGGLVQPGGSLRLSCAASGFTLDYYAINWFRQAPGKEREEVSCISSSDGSTYYADSVKGRFTISRDNAKNTVYLQMNSLKPEDTAVYYCATSGWRLCRPTDEYDYLYWGQGTQVTVSS
12.9	2.23	2LIG189 (VHH, PD-L1 VHH) VHH: QVQLQESGGGLVQAGGSLRLSCAASGKIFSGNDMGWYRQAPGKQRELVGIITSGGITDYADAVKGRFTISRDNAKNMMYLQMNSLKPEDTAVYYCNMRDRTIWWGQGTQVTVSS
22.6	2.67	2LIG85 (VHH, PD-L1 VHH) VHH: QVQLQESGGGLVQPGGSLRLSCAASGFTFTAYAMSWFRQAPGKEREEVSCINSSDGSTYYADSVKGRFTISRDNAKNTVYLQMNSLKPEDTAVYHCATDGWRDCTWSNEYAYWGQGTQVTVSS
33.3	4	2LIG139 (VHH, PD-L1 VHH) VHH: QVQLQESGGGLVQPGGSLRLSCAVSGFNLDPYAIAWFRQAPGKEREEVSCISSSDVGTYYADSVKGRFTISRDNAKKTVYLQMNSLKPEDTAVYYCATDGYYYCSDYPHPLYWGQGTQVTVSS
27.2	2.88	2LIG89 (VHH, PD-L1 VHH) VHH: QVQLQESGGGLVQPGGSLRLSCAASGFNLDPYAIAWFRQAPGKEREEVSCISSSDVGTYYADSVKGRFTISRDNTKKTVYLQMNSLKPEDTAVYYCATDGYYYCSDYPHPLYWGQGTQVTVSS
23.6	2.11	2LIG65 (VHH, PD-L1 VHH) VHH: QVQLQESGGGLVQAGGSLRLSCAASGFNLDPYAIAWFRQAPGKEREEVSCISSSDVGTYYADSVKGRFTISRDNAKKTVYLQMNSLKPEDTAVYYCATDGYYYCSDYPHPLYWGQGTQVTVSS
34.6	3.73	2LIG127 (VHH, PD-L1 VHH) VHH: QVQLQESGGGLVQPGGSLRLSCAASGFNLDPYAIGWFRQAPGKEREEVSCISSGDGSKYYADSVKGRFTMSRDNAKKTVYLQMNSLKPEDTAVYYCATDGYYYCSDYPHPLYWGQGTQVTVSS

The remaining lines, values behind:

Binder	A/control [1]	ELISA [2]
2LIG27 (VHH, PD-L1 VHH) VHH: QVQLQESGGGVVQAGGSLRLSCTASGTIFSINRMDWFRQAPGKQRELVALITSDGTPTYADSAKGRFTISRDNTKKTVSLQMNSLKPEDTAVYYCHVSSGVYNYWGQGTQVTVSS	3.78	0.429
2LIG3 (VHH, PD-L1 VHH) VHH: QVQLQESGGGLVQAGGSLRLSCTASGTIFSINHMDWFRQAPGKQRELVALITSDGFPTYADSAKGRFTISRDNTKKTVSLQMNSLKPEDTAVYYCHVSSGVYNYWGQGTQVTVSS	9.75	1.46
2LIG34 (VHH, PD-L1 VHH) VHH: QVQLQESGGGSVQAGGSLRLSCTASGTIFSINRMDWFRQAPGKQRELVALITSDGTPTYADSAKGRFTISRDNTKKTVSLQMNSLKPEDTAVYYCHVSSGVYNYWGQGTQVTVSS	3.59	0.568
3LIG7 (VHH, PD-L1 VHH) VHH: QVQLQESGGGLVQAGGSLRLSCAASGFTFSSYGMSWVRQTPGKGPEWVSAIDSGGGSTSYADSVKGRFTISRDNAKNTLYLQMNSLKPEDTAVYYCAQGYYCSGYGCSDYWGQGTQVTVSS	37.6	3.64
3LIG9 (VHH, PD-L1 VHH) VHH: QVQLQESGGGLVQPGGSLRLSCAASGFTFSSYGMSWVRQTPGKGPEWVSAIDSGGGSTSYADSVKGRFTISRDNAKNTLYLQMNSLKPEDTAVYYCAQGYYCSGYGCSDYWGQGTQVTVSS	37.7	3.66
2LIG29 (VHH, PD-L1 VHH) VHH: QVQLQESGGGLVQTGGSLRLSCAASGFTFSSYGMSWVRQTPGKGPEWVSAIDSGGGSTSYADSVKGRFTISRDNAKNTLYLQMNSLKPEDTAVYYCAQGYYCSGYGCSDYWGQGTQVTVSS	34.6	3.77
2LIG2 (VHH, PD-L1 VHH) VHH: QVQLQESGGGLVQAGGSLRLSCAASGFTLDYYAIGWFRQAPGKEREEVSCISSSDGSTYYADSVKGRFTISRDNAKNTVNLQMNSLKPEDTAVYYCATDGWSSCRHGINEYLYWGQGTQVTVSS	3.86	0.51
3LIG3 (VHH, PD-L1 VHH) VHH: QVQLQESGGGLVQPGGSLRLSCAASGFTLDYYAIGWFRQAPGKEREEVSCISSSDGSTYYADSVKGRFTISRDNAKNTVNLQMNSLKPEDTAVYYCATDGWSSCRHGINEYLYWGQGTQVTVSS	7.16	0.58
2LIG48 (VHH, PD-L1 VHH) VHH: QVQLQESGGGLVQPGGSLRLSCAASGFTFNDYAMSWVRQAPGKGLEWVSGIRSNGGYTNYADSVKGRFTISRDNAKNTLYLQMNSLKSEDTAVYYCAQGYYCSGYGCYPGQGTQVTVSS	33.2	4
2LIG16 (VHH, PD-L1 VHH) VHH: QVQLQESGGGLVQPGGSLRLSCAASGFTFDDYGMSWVRQAPGKGLEWVSAIRWNGGSTNYADSVKGRFTISRDNAKNTLYLQMNSLKSEDTAVYYCAQGYYCSGYGCPRGQGTQVTVSS	26.4	3.02
2LIG22 (VHH, PD-L1 VHH) VHH: QVQLQESGGGLVQPGGSLRLSCAASGFTLDYYAINWFRQAPGKEREEVSCISSSDGSTYYADSVKGRFTISRDNAKNTVYLQMNSLKPEDTAVYYCATSGWRLCRPTDEYDYSYWGQGTQVTVSS	4.55	0.469
2LIG30 (VHH, PD-L1 VHH) VHH: QVQLQESGGGLVQPGGSLRLSCAASGKIFSGNDMGWYRQAPGKQRELVGIITSGGITDYADAVKGRFTISRDNAKNMMYLQMNSLKPEDTAVYYCNMRDRTIWWGQGTQVTVSS	9.59	1.11
3LIG18 (VHH, PD-L1 VHH) VHH: QVQLQESGGGLVQPGGSLRLSCAASGFNLDPYAIAWFRQAPGKEREEVSCISSSDVGTYYADSVKGRFTISRDNAKKTVYLQMNSLKPEDTAVYYCATDGYYYCSDYPHPLYWGQGTQVTVSS	40	3.5
